Laboratory results from publication PMC6628311, “An Emerin LEM-Domain Mutation Impairs Cell Response to Mechanical Stress” (Cells, 2019).
Substitutions are numbered along the chain they refer to. Numbers in names are those of the source.

B1: human emerin fragment EmN (region 1-187), wild-type (domain or fragment, UniProt P50402 1-187, looked up)
chain: MDNYADLSDTELTTLLRRYNIPHGPVVGSTRRLYEKKIFEYETQRRRLSPPSSSAASSYSFSDLNSTRGDADMYDLPKKEDALLYQSKGYNDDYYEESYFTTRTYGEPESAGPSRAVRQSVTSFPDADAFHHQVHDDDLLSSSEEECKDRERPMYGRDSAYQSITHYRPVSASRSSLDLSYYPTSSS
notes: emerin, human, fragment EmN, residues 1-187 of the 254-residue protein (LEM-domain aa 1-45 and part of the disordered region); pETM-13 vector; also called wild-type EmN; EmN wild-type; not shown: His8, N-terminal, cleaved
B2: human emerin fragment EmN (region 1-187), mutant P22L (domain or fragment, UniProt P50402 1-187, looked up)
chain: B1 chain with P22L
notes: emerin, human, fragment EmN, residues 1-187, with the patient mutation P22L (atrial cardiac defects); Made by site-directed mutagenesis from the EmN expression vector; also called EmN P22L; not shown: His8, N-terminal, cleaved
B3: human emerin fragment EmN (region 1-187), mutant T43I (domain or fragment, UniProt P50402 1-187, looked up)
chain: B1 chain with T43I
notes: emerin, human, fragment EmN, residues 1-187, with the patient mutation T43I (atrial cardiac defects); Made by site-directed mutagenesis from the EmN expression vector; also called EmN T43I; not shown: His8, N-terminal, cleaved
B4: human emerin fragment EmN (region 1-187), mutant ΔK37 (domain or fragment, UniProt P50402 1-187, looked up)
chain: MDNYADLSDTELTTLLRRYNIPHGPVVGSTRRLYEKIFEYETQRRRLSPPSSSAASSYSFSDLNSTRGDADMYDLPKKEDALLYQSKGYNDDYYEESYFTTRTYGEPESAGPSRAVRQSVTSFPDADAFHHQVHDDDLLSSSEEECKDRERPMYGRDSAYQSITHYRPVSASRSSLDLSYYPTSSS
notes: emerin, human, fragment EmN, residues 1-187, with the patient deletion ΔK37 (atrial cardiac defects); Made by site-directed mutagenesis from the EmN expression vector; also called EmN ΔK37; emerin ΔK37; not shown: His8, N-terminal, cleaved

Assays:
[1] = molecular target: human barrier-to-autointegration factor (BAF) with all cysteines mutated into alanine (human) (UniProt O75531); assay: crystal structure; ternary complex EmN T43I/BAF/lamin A/C Ig-fold at 5 mg/mL, a week at 4 °C (proteolysis to the LEM-domain); hanging drop at 4 °C, 18% PEG 3350, 100 mM Tris Bis pH 5.5, 0.1 M NH4SO4; molecular replacement; 2.3 Å
[2] = molecular target: the molecule itself; assay: thioflavin T fluorescence (self-assembly kinetics); protein at 300 uM heated at 37 °C in 20 mM Tris HCl pH 8, 30 mM NaCl, 5 mM DTT; aliquots at 20 uM protein with 2.5 uM ThT read at 20 °C over 24 h

Molecule | stoichiometry N [1] | binding result [2]
human barrier-to-autointegration factor (BAF) with all cysteines mutated into alanine (from UniProt O75531 1-89) (natural protein) | 2 | –
B1 | – | binds
B2 | – | binds
B3 | – | binds
B4 | – | binds
